Measured values as given in patent publication US7794719 (dated 2010).
Positions count from the first letter of the chain named.

B1: MS-R 3.6.H5 x 3.6.L2 IgG1 (antibody, V domains shown)
VH: QLVESGGGLVQPGGSLRLSCAASGFTFSSYAMSWVRQAPGKGLEWVSAISESGKTKYYADSVKGRFTISRDNSKNTLYLQMNSLRAEDTAVYYCARLTHYARYYRYFDVWGQGTLVTVSS
VL: DIVLTQSPATLSLSPGERATLSCRASQFLSRYYLAWYQQKPGQAPRLLIYGASSRATGVPARFSGSGSGTDFTLTISSLEPEDFAVYYCQQTYNYPPTFGQGTKVEIKR
B2: MS-R 7.11.H1 x 7.11.L1 IgG1 (antibody, V domains shown)
VH: QLVESGGGLVQPGGSLRLSCAASGFTFSSYAMSWVRQAPGKGLEWVSGINAAGFRTYYADSVKGRFTISRDNSKNTLYLQMNSLRAEDTAVYYCARGKGNTHKPYGYVRYFDVWGQGTLVTVSS
VL: B1 VL with F28R, L29I, S30L, Y32I, V86T, T92V, N94S, Y95P, P97H
B3: MS-R 7.9.H2 IgG1 (antibody, V domains shown)
VH: B2 VH with G48A, A52D, F54N, T56K
VL: B1 VL with F28S, L29V, R31S, Y32S, V86T, Q90L, T92I, Y95M, P97I
B4: MS-R 7.4.H2 x 7.2.L1 IgG1 (antibody, V domains shown)
VH: B2 VH with G48A, A51Y, A52N, F54A, T56I
VL: B1 VL with F28Y, L29V, S30D, Y32T, V86T, T92I, N94S, Y95F, P97H
B5: MS-R 7.9.H7 IgG1 (antibody, V domains shown)
VH: QVELVESGGGLVQPGGSLRLSCAASGFTFSSYAMSWVRQAPGKGLEWVSAINASGTRTYYADSVKGRFTISRDNSKNTLYLQMNSLRAEDTAVYYCARGKGNTHKPYGYVRYFDVWGQGTLVTVSS
VL: B1 VL with F28S, L29V, R31S, Y32S, V86T, Q90L, T92I, Y95M, P97I
B6: MS-R 3.6.H8 x 3.6.L2 IgG1 (antibody, V domains shown)
VH: B1 VH with S52Y, G53S, T55F
VL: B1 VL

molecular target: Aβ1-40 fibers (human); test: SPR

| Kd | Binder |
| --- | --- |
| 1.03 nM | B1 |
| 0.7 nM | B2 |
| 0.42 nM | B3 |
| 0.63 nM | B4 |
| 0.69 nM | B5 |

molecular target: Aβ1-42 fibers (human); test: SPR

| Kd | Binder |
| --- | --- |
| 0.2 nM | B1 |
| 0.13 nM | B2 |
| 0.11 nM | B3 |
| 0.12 nM | B4 |
| 0.24 nM | B5 |

molecular target: Aβ1-40 fibers (human); test: SPR; remark: another data set of the same source

| Kd | Binder |
| --- | --- |
| 0.2 nM | B1 |
| 0.11 nM | B2 |
| 0.12 nM | B3 |
| 0.12 nM | B4 |
| 0.25 nM | B5 |

molecular target: Aβ1-42 fibers (human); test: SPR; remark: another data set of the same source

| Kd | Binder |
| --- | --- |
| 0.95 nM | B1 |
| 0.7 nM | B2 |
| 0.38 nM | B3 |
| 0.56 nM | B4 |
| 0.7 nM | B5 |

molecular target: Aβ1-42 fibers (human); test: SPR, bivalent

| Kd | Binder |
| --- | --- |
| 0.22 nM | B6 |

molecular target: Aβ1-40 fibers (human); test: SPR, bivalent

| Kd | Binder |
| --- | --- |
| 0.22 nM | B6 |

molecular target: Aβ1-40 fibers (human); test: SPR, monovalent

| Kd | Binder |
| --- | --- |
| 0.95 nM | B6 |

molecular target: Aβ1-42 fibers (human); test: SPR, monovalent

| Kd | Binder |
| --- | --- |
| 0.82 nM | B6 |
